Results from PMC8670242, “Functional Characterization and Structural Insights Into Stereoselectivity of Pulegone Reductase in Menthol Biosynthesis” (Frontiers in Plant Science, 2021).

Molecular target: the molecule itself
Assay: SEC; gel filtration of purified wild type MpPR on HiLoad 16/60 Superdex 200 in 10 mM Tris-HCl pH 8.0, 50 mM NaCl, 5 mM MgCl2, 1 mM DTT; molecular mass calibrated with high and low molecular weight calibration kits

B1: (+)-pulegone reductase from Mentha piperita (enzyme)
chain: MVMNKQIVLNNYINGSLKQSDLALRTSTICMEIPDGCNGAILVKNLYLSVNPYLILRMGKLDIPQFDSILPGSTIVSYGVSKVLDSTHPSYEKGELIWGSQAGWEEYTLIQNPYNLFKIQDKDVPLSYYVGILGMPGMTAYAGFFEICSPKKGETVFVTAAAGSVGQLVGQFAKMFGCYVVGSAGSKEKVDLLKNKFGFDDAFNYKEESDYDTALKRHFPEGIDIYFDNVGGKMLEAVINNMRVHGRIAVCGMVSQYSLKQPEGVHNLLKLIPKQIRMQGFVVVDYYHLYPKFLEMVLPRIKEGKVTYVEDISEGLESAPSALLGVYVGRNVGNQVVAVSRE
notes: (+)-pulegone reductase, Mentha piperita, UniProt Q6WAU0; gene cloned into pET28a with NheI and HindIII; also called MpPR; wild type MpPR; source: E. coli BL21(DE3), purified (Ni-NTA, gel filtration on Superdex 200)
With B1 the “stoichiometry N” value was 2.
